Reference: the supplement of paper PMC9112550, “Optimization of the antimicrobial peptide Bac7 by deep mutational scanning” (BMC Biology, 2022)

System: Escherichia coli TOP10
Assay: shrunken log2 fold change of peptide-encoding DNA abundance (4.5 h post-induction vs induction); higher = less antimicrobial activity (less host growth inhibition)
Conditions: time post-induction: 4.5 h; library: site-saturation at positions 5, 18, 19, 20
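Also: peptides expressed intracellularly from a pBAD plasmid library in pooled LB shake-flask culture, induced with 0.3% L-arabinose, DNA abundance read by NGS, three biological replicates, DESeq2 with apeglm shrinkage.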

First: RRIRVRPPRLPRPRPRPQSNPRP
Second: RRIRQRPPRLPRPRPRPFIRPRP
The “shrunken log2 fold change” value of the first is lower: -0.394 for the first, -0.00448 for the second.

First: RRIRDRPPRLPRPRPRPAYKPRP
Second: RRIRDRPPRLPRPRPRPKEVPRP
The “shrunken log2 fold change” value of the first is lower: -0.456 for the first, 0.174 for the second.

RRIRVRPPRLPRPRPRPFPSPRP and RRIRCRPPRLPRPRPRPMVTPRP are within 0.2 log units of each other in “shrunken log2 fold change” value: -0.127 for the first, -0.071 for the second.

RRIRRRPPRLPRPRPRPVTFPRP and RRIRDRPPRLPRPRPRPPHEPRP are within 0.2 log units of each other in “shrunken log2 fold change” value: 0.00522 for the first, 0.00485 for the second.

Going from RRIRKRPPRLPRPRPRPRIAPRP to RRIRVRPPRLPRPRPRPNGNPRP, the “shrunken log2 fold change” value falls from 0.599 to -0.323.

First: RRIRTRPPRLPRPRPRPRQHPRP
Second: RRIRPRPPRLPRPRPRPEEEPRP
The “shrunken log2 fold change” value of the first is lower: -0.374 for the first, 0.163 for the second.

RRIRQRPPRLPRPRPRPTSRPRP and RRIRLRPPRLPRPRPRPRDTPRP are within 0.2 log units of each other in “shrunken log2 fold change” value: -0.0729 for the first, -0.0364 for the second.

First: RRIRQRPPRLPRPRPRPVKVPRP
Second: RRIRTRPPRLPRPRPRPTRFPRP
The “shrunken log2 fold change” value of the first is lower: -0.00987 for the first, 0.463 for the second.

RRIRWRPPRLPRPRPRPDSMPRP and RRIRHRPPRLPRPRPRPILRPRP are within 0.2 log units of each other in “shrunken log2 fold change” value: -0.0126 for the first, -0.178 for the second.

Going from RRIRRRPPRLPRPRPRPSRVPRP to RRIRVRPPRLPRPRPRPYSAPRP, the “shrunken log2 fold change” value falls from 0.553 to -0.805.

Compared with RRIRMRPPRLPRPRPRPRMKPRP, RRIRTRPPRLPRPRPRPTYGPRP is lower in “shrunken log2 fold change” value: 0.447 for the first, -0.104 for the second.

RRIRGRPPRLPRPRPRPSIMPRP and RRIRERPPRLPRPRPRPHWGPRP are within 0.2 log units of each other in “shrunken log2 fold change” value: 0.16 for the first, 0.0212 for the second.

First: RRIRMRPPRLPRPRPRPAVHPRP
Second: RRIRLRPPRLPRPRPRPSRMPRP
The “shrunken log2 fold change” value of the first is higher: 0.0654 for the first, -0.241 for the second.

First: RRIRSRPPRLPRPRPRPAQDPRP
Second: RRIRIRPPRLPRPRPRPPAEPRP
The “shrunken log2 fold change” value of the first is lower: 0.235 for the first, 0.583 for the second.

Going from RRIRLRPPRLPRPRPRPTKYPRP to RRIRPRPPRLPRPRPRPGKCPRP, the “shrunken log2 fold change” value rises from -0.47 to -0.125.

Compared with RRIRRRPPRLPRPRPRPQNQPRP, RRIRCRPPRLPRPRPRPCMVPRP is lower in “shrunken log2 fold change” value: 0.0537 for the first, -0.587 for the second.

Going from RRIRVRPPRLPRPRPRPTKPPRP to RRIRCRPPRLPRPRPRPEVIPRP, the “shrunken log2 fold change” value falls from 0.172 to -0.083.

Going from RRIRHRPPRLPRPRPRPGWTPRP to RRIRFRPPRLPRPRPRPTNVPRP, the “shrunken log2 fold change” value falls from -0.00563 to -0.254.

First: RRIRPRPPRLPRPRPRPSIFPRP
Second: RRIRHRPPRLPRPRPRPMSDPRP
The “shrunken log2 fold change” value of the first is lower: -0.284 for the first, 0.00234 for the second.

Compared with RRIRTRPPRLPRPRPRPDLNPRP, RRIRTRPPRLPRPRPRPLHYPRP is lower in “shrunken log2 fold change” value: 0.0685 for the first, -0.592 for the second.

RRIRYRPPRLPRPRPRPASCPRP and RRIRHRPPRLPRPRPRPIAYPRP are within 0.2 log units of each other in “shrunken log2 fold change” value: -0.235 for the first, -0.149 for the second.

Compared with RRIRCRPPRLPRPRPRPCHSPRP, RRIRERPPRLPRPRPRPKHKPRP is higher in “shrunken log2 fold change” value: -1.91 for the first, -0.344 for the second.

RRIRRRPPRLPRPRPRPFFMPRP and RRIRGRPPRLPRPRPRPYDPPRP are within 0.2 log units of each other in “shrunken log2 fold change” value: -0.0188 for the first, -0.0783 for the second.

RRIRERPPRLPRPRPRPQYYPRP and RRIRWRPPRLPRPRPRPQYHPRP are within 0.2 log units of each other in “shrunken log2 fold change” value: -0.676 for the first, -0.505 for the second.

Compared with RRIRARPPRLPRPRPRPRFEPRP, RRIRIRPPRLPRPRPRPEGVPRP is lower in “shrunken log2 fold change” value: 0.401 for the first, 0.115 for the second.

Going from RRIRYRPPRLPRPRPRPDLWPRP to RRIRDRPPRLPRPRPRPTKMPRP, the “shrunken log2 fold change” value rises from -0.0329 to 0.269.

Going from RRIRPRPPRLPRPRPRPAQEPRP to RRIRGRPPRLPRPRPRPWYDPRP, the “shrunken log2 fold change” value falls from 0.171 to -0.929.

RRIRDRPPRLPRPRPRPSIEPRP and RRIRQRPPRLPRPRPRPGHVPRP are within 0.2 log units of each other in “shrunken log2 fold change” value: 0.089 for the first, 0.0119 for the second.

RRIRSRPPRLPRPRPRPQDAPRP and RRIRWRPPRLPRPRPRPQMRPRP are within 0.2 log units of each other in “shrunken log2 fold change” value: 0.0464 for the first, 0.147 for the second.

Compared with RRIRVRPPRLPRPRPRPAYDPRP, RRIRSRPPRLPRPRPRPVSPPRP is higher in “shrunken log2 fold change” value: -0.565 for the first, 0.155 for the second.

First: RRIRSRPPRLPRPRPRPDGVPRP
Second: RRIRWRPPRLPRPRPRPQVCPRP
The “shrunken log2 fold change” value of the first is lower: -0.115 for the first, 0.189 for the second.

Going from RRIRLRPPRLPRPRPRPMNVPRP to RRIRKRPPRLPRPRPRPFIMPRP, the “shrunken log2 fold change” value rises from -0.839 to -0.191.

First: RRIRKRPPRLPRPRPRPTWLPRP
Second: RRIRFRPPRLPRPRPRPLYGPRP
The “shrunken log2 fold change” value of the first is higher: 0.638 for the first, -0.303 for the second.

Compared with RRIRCRPPRLPRPRPRPDIYPRP, RRIRCRPPRLPRPRPRPLTFPRP is lower in “shrunken log2 fold change” value: -0.174 for the first, -0.419 for the second.

First: RRIRQRPPRLPRPRPRPPPAPRP
Second: RRIRKRPPRLPRPRPRPNGQPRP
The “shrunken log2 fold change” value of the first is higher: 0.804 for the first, 0.203 for the second.

RRIRQRPPRLPRPRPRPTNQPRP and RRIRPRPPRLPRPRPRPAWEPRP are within 0.2 log units of each other in “shrunken log2 fold change” value: 0.0625 for the first, 0.216 for the second.

First: RRIRSRPPRLPRPRPRPLAWPRP
Second: RRIRLRPPRLPRPRPRPFTKPRP
The “shrunken log2 fold change” value of the first is higher: 0.402 for the first, -0.00525 for the second.

First: RRIRIRPPRLPRPRPRPEHIPRP
Second: RRIRIRPPRLPRPRPRPPWCPRP
The “shrunken log2 fold change” value of the first is lower: -0.142 for the first, 1.45 for the second.

Compared with RRIRGRPPRLPRPRPRPSIWPRP, RRIRQRPPRLPRPRPRPIHIPRP is lower in “shrunken log2 fold change” value: 0.511 for the first, -0.187 for the second.

RRIRCRPPRLPRPRPRPVVLPRP and RRIRIRPPRLPRPRPRPRACPRP are within 0.2 log units of each other in “shrunken log2 fold change” value: -0.0778 for the first, -0.148 for the second.

First: RRIRLRPPRLPRPRPRPSFLPRP
Second: RRIRSRPPRLPRPRPRPAGQPRP
The “shrunken log2 fold change” value of the first is lower: -0.562 for the first, -0.0166 for the second.

First: RRIRDRPPRLPRPRPRPDEQPRP
Second: RRIRFRPPRLPRPRPRPLRSPRP
The “shrunken log2 fold change” value of the first is lower: 0.0528 for the first, 0.259 for the second.

First: RRIRVRPPRLPRPRPRPYSPPRP
Second: RRIRKRPPRLPRPRPRPIAHPRP
The “shrunken log2 fold change” value of the first is lower: -0.181 for the first, 0.143 for the second.

Compared with RRIRQRPPRLPRPRPRPRNMPRP, RRIRWRPPRLPRPRPRPMEYPRP is higher in “shrunken log2 fold change” value: -0.211 for the first, 0.0388 for the second.

RRIRCRPPRLPRPRPRPAVSPRP and RRIRQRPPRLPRPRPRPSKLPRP are within 0.2 log units of each other in “shrunken log2 fold change” value: -0.345 for the first, -0.401 for the second.

RRIRERPPRLPRPRPRPHERPRP and RRIRQRPPRLPRPRPRPKWAPRP are within 0.2 log units of each other in “shrunken log2 fold change” value: -0.00965 for the first, -0.0411 for the second.

Compared with RRIRVRPPRLPRPRPRPDVIPRP, RRIRFRPPRLPRPRPRPPSGPRP is higher in “shrunken log2 fold change” value: -0.0508 for the first, 0.422 for the second.

Going from RRIRFRPPRLPRPRPRPAKDPRP to RRIRWRPPRLPRPRPRPWGDPRP, the “shrunken log2 fold change” value falls from 0.255 to 0.0345.

RRIRFRPPRLPRPRPRPLKTPRP and RRIRTRPPRLPRPRPRPGDIPRP are within 0.2 log units of each other in “shrunken log2 fold change” value: -0.112 for the first, -0.119 for the second.

Compared with RRIRFRPPRLPRPRPRPKFHPRP, RRIRPRPPRLPRPRPRPWIEPRP is higher in “shrunken log2 fold change” value: -0.42 for the first, -0.162 for the second.

RRIRMRPPRLPRPRPRPKMGPRP and RRIRNRPPRLPRPRPRPAEFPRP are within 0.2 log units of each other in “shrunken log2 fold change” value: -0.00235 for the first, 0.0274 for the second.

RRIRQRPPRLPRPRPRPLIVPRP and RRIRTRPPRLPRPRPRPHADPRP are within 0.2 log units of each other in “shrunken log2 fold change” value: -0.149 for the first, 0.0427 for the second.

RRIRTRPPRLPRPRPRPNPHPRP and RRIRQRPPRLPRPRPRPKNQPRP are within 0.2 log units of each other in “shrunken log2 fold change” value: -0.177 for the first, -0.214 for the second.

Compared with RRIRSRPPRLPRPRPRPMMNPRP, RRIRARPPRLPRPRPRPFWTPRP is higher in “shrunken log2 fold change” value: -0.0187 for the first, 0.29 for the second.

In the case of RRIRTRPPRLPRPRPRPFVGPRP, the “shrunken log2 fold change” value is reported as -0.035.
